Measurements as given in article PMC3456991 (Journal of molecular biology, 2012).
Substitutions are numbered along the chain they refer to. Names may count otherwise. Like-named read-outs stand apart in the source and are kept apart here.

B1: Fis1ΔTM-C79S/C87S (domain or fragment, Saccharomyces cerevisiae)
chain: MMTKVDFWPTLKDAYEPLYPQQLEILRQQVVSEGGPTATIQSRFNYAWGLIKSTDVNDERLGVKILTDIYKEAESRRRESLYYLTIGSYKLGEYSMAKRYVDTLFEHERNNKQVGALKSMVEDKIQKE
B2: Fis1ΔTM-3 (E78D/I85T/Y88H) (domain or fragment, Saccharomyces cerevisiae)
chain: B1 chain with E79D, S80C, I86T, S88C, Y89H
B3: Fis1ΔTM-A72P (domain or fragment, Saccharomyces cerevisiae)
chain: B1 chain with A73P, S80C, S88C
B4: Fis1ΔTM (1-127), wild type cytoplasmic domain of yeast Fis1 (domain or fragment, Saccharomyces cerevisiae)
chain: B1 chain with S80C, S88C
B5: Fis1ΔTM (1-126) without a linker or affinity tag, for NMR (domain or fragment, Saccharomyces cerevisiae, UniProt P40515 1-126, looked up)
chain: MTKVDFWPTLKDAYEPLYPQQLEILRQQVVSEGGPTATIQSRFNYAWGLIKSTDVNDERLGVKILTDIYKEAESRRRECLYYLTIGCYKLGEYSMAKRYVDTLFEHERNNKQVGALKSMVEDKIQK

Columns and labels:
SEC [1] = target: the molecule itself; experiment: SEC
SEC [2] = target: the molecule itself; experiment: SEC; remark: listed apart in the source
SEC [3] = target: the molecule itself; experiment: SEC; remark: listed apart in the source
SEC-MALS = target: the molecule itself; experiment: SEC-MALS
[4] = target: the molecule itself; experiment: NMR chemical shift comparison of monomer and dimer

| Protein | binding result (SEC [1]) | Kd (SEC [2]) [µM] | other results |
| --- | --- | --- | --- |
| B1 | binds |  |  |
| B2 | binds |  |  |
| B3 |  | ≥ 3000 |  |
| B4 |  | 15 ± 3 | Kd (SEC [3]): 0.24 ± 0.08 µM; stoichiometry N (SEC-MALS): 2 |
| B5 |  |  | binding result [4]: binds |
